B1: ET200-028 (scFv)
scFv: QSVLTQPPAASGTPGQRVTISCSGGVSNIGSGALNWYQQLPGTAPKLLIYSYNQRPSGVSDRFSGSRSATSASLAISGLQSEDEADYYCATWDDSVNGWVFGGGTKLTVLGSRGGGGSGGGGSGGGGSLEMAQVQLVQSGAEVKKPGDSVKVSCKPSGYNFLNYGINWVRQAPGQGLEWMGWISTYTGNTNYAQKLQGRVTFTTDTSTSTAYMEMRSLRSDDTAVYYCARDLYYYEGVDYWGQGTLVTVSSTSGQAGQHHHHHHGAYPYDVPDYAS
notes: screened as phage clone; entry is VL-linker-VH-His tag-HA tag
B2: ET200-029 (scFv)
scFv: QAVLTQPPSVSVAPGKTARVTCGGNNIGSESVHWYQQKPGQAPVLVIYYDTDRPSGIPERFSGSHSGTTATLTISRVEAGDEADYYCQVWDSSRDHVVFGGGTKLTVLGSRGGGGSGGGGSGGGGSLEMAQVQLVQSGGGVVQPGRSLRLSCAASGFTFSSYAMHWVRQAPGKGLEWVAVISYDGSNKYYADSVKGLFTISRDNSKNTLYLQMNSLRAEDTAVYYCARSYFTSGFYDYWGQGTLVTVSSTSGQAGQHHHHHHGAYPYDVPDYAS
notes: as for B1
B3: ET200-030 (scFv)
scFv: QSVVTQPPSVSGAPGQRVTISCTGSSSNIGAGYDVNWYQQFPGTAPKLLIYGNSNRPSGVPDRFSGSKSGTSASLAITGLQAEDEADYYCQSYDSSLSGSYVFGTGTKVTVLGSRGGGGSGGGGSGGGGSLEMAQMQLVQSGAEVKKPGASVKVSCKASGYTLTELSMHWVRQAPGKGLEWMGGFDPEDGETIYAQKFQGRVTMTEDTSTDTAYMELSSLRSEDTAVYYCARMSSMYYDWGQGTLVTVSSTSGQAGQHHHHHHGAYPYDVPDYAS
notes: as for B1
B4: ET200-002 (scFv)
scFv: NFMLTQPHSVSESPGKTVTISCTRSSGSIASNYVQWYQQRPGSAPTTVIYEDNQRPSGVPDRFSGSIDSSSNSASLTISGLKTEDEADYYCQSYDSSNSVVFGGGTKLTVLGSRGGGGSGGGGSGGGGSLEMAQVQLVQSGTEVKKPGASVRVACKASGYPFNKYDINWVRQAPGQGLEWMGGIIPIFRTTNYAQKFQGRVTITADESTSTAYMELSSLRSEDTAVYYCAREWFYWDIWGQGTLVTVSSTSGQAGQHHHHHHGAYPYDVPDYAS
notes: as for B1
B5: ET200-031 (scFv)
scFv: SYVLTQPPSVSVAPGKTARITCGGNNIGSKSVHWYQQKPGQAPVLVIYYDSDRPSGIPERFSGSNSGNTATLTISRVEAGDEADYYCQVWDSSSDYVFGTGTKVTVLGSRGGGGSGGGGSGGGGSLEMAEVQLVETGGGLVKPGGSLRLSCAASGFTVSDYYMSWIRQAPGKGLEWISYISGSGNSIYYADSVKGRFTISRDNAKNSLDLQMTSLRAEDTAVYYCARSTKFDYWGQGTLVTVSSTSGQAGQHHHHHHGAYPYDVPDYAS
notes: screened as phage clone; entry is VL-linker-VH-His tag-HA tag; also called ET200-31
B6: ET200-032 (scFv)
scFv: LPVLTQPPSASGTPGQRVTISCSGSSSNVGSYTVNWYRQLPGTAPTLLIYNNNQRPSGVPDRFSDSKSGTSASLTISGLQPEDEADYYCAAWDDRLGGYVFGTGTKVTVLGSRGGGGSGGGGSGGGGSLEMAEVQLVQSGAEVKKPGESLKISCKGSGYSFTNYWIGWVRQMPGKGLEWMGIIYPGDSDTRYSPSFQGQVTISADKSISTAYLQWSSLKASDTAMYYCARSTGSSHMSDEWGQGTLVTVSSTSGQAGQHHHHHHGAYPYDVPDYAS
notes: as for B1

Key:
SLAMF9 protein = SLAMF9 protein (UniProt Q96A28 19-236, limits assumed); assay: phage clone on SLAMF9 protein
[1] = target: T1, FcRL2, overexpressed on 3T3 cells (UniProt Q96LA5 20-508, limits assumed); assay: phage clone on 3T3-FcRL2 cells
T1 construct: whole, on cells
T1 sequence (looked up): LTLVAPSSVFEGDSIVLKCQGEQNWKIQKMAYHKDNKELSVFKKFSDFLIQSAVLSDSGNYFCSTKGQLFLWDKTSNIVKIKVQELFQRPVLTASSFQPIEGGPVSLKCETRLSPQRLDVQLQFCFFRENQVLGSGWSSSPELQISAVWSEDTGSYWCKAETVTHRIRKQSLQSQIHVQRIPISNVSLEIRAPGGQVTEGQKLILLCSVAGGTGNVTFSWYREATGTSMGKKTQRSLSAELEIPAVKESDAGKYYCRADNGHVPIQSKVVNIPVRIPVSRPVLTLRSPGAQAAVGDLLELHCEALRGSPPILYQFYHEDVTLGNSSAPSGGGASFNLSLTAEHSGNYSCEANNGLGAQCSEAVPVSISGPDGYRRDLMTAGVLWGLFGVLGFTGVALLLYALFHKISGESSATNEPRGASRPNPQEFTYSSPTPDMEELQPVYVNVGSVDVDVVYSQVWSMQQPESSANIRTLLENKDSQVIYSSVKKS

[2] = target: T2, Fc Receptor-like 5 (FcRL5), full length, overexpressed on 3T3 or Raji cells (human, UniProt Q96RD9 16-977); assay: phage clone screening on cells
T2 construct: also called 3T3-FcRL5
T2 sequence: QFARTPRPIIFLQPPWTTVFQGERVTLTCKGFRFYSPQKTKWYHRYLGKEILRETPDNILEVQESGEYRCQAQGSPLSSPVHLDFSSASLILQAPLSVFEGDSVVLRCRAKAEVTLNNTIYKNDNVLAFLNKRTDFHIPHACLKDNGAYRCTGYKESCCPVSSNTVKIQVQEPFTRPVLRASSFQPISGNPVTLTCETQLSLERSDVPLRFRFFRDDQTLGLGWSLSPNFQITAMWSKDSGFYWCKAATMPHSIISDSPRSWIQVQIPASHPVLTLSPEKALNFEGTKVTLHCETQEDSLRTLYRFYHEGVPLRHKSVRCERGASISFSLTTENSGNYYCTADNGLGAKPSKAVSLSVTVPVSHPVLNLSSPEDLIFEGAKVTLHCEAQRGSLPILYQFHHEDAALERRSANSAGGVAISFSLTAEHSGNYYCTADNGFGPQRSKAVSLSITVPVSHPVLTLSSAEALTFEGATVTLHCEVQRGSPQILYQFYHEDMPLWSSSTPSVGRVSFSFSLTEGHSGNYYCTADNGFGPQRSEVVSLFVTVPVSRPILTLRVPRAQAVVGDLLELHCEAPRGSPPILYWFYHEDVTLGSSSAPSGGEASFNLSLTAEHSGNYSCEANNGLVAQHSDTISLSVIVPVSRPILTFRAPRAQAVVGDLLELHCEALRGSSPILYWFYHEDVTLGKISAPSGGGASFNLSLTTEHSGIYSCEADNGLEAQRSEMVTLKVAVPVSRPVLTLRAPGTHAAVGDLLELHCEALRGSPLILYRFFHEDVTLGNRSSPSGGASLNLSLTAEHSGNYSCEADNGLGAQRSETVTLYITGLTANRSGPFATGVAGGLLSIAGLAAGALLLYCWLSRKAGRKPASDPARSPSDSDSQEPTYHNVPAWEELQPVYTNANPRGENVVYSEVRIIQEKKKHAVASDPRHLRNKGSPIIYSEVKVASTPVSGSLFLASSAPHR
Method: Once selected, positive scFv clones are further tested for their binding to FcRL5 (e.g., human FcRL5) on live 3T3 cell surfaces by flow cytometry. Briefly, phage clones are incubated with 3T3 cells over-expressing FcRL5. The cells are washed and then incubated with a mouse anti-M13 coat protein mAb. Cells are washed again and labeled with a PE-horse anti-mouse Ig prior to flow cytometry.
Phage′ display against FcRL5 was performed to enrich for scFv phage clones that bind to FcRL5 specifically. Screening was carried out on FcRL5 overexpressing 3T3 cells or 3T3 cells expressing FcRL1, 2, 3, 4 or 6 as a negative control (FIG. 2).

[3] = target: T3, FcRL6, overexpressed on 3T3 cells (UniProt Q6DN72 20-434, limits assumed); assay: phage clone on 3T3-FcRL6 cells
T3 construct: whole, on cells
T3 sequence (looked up): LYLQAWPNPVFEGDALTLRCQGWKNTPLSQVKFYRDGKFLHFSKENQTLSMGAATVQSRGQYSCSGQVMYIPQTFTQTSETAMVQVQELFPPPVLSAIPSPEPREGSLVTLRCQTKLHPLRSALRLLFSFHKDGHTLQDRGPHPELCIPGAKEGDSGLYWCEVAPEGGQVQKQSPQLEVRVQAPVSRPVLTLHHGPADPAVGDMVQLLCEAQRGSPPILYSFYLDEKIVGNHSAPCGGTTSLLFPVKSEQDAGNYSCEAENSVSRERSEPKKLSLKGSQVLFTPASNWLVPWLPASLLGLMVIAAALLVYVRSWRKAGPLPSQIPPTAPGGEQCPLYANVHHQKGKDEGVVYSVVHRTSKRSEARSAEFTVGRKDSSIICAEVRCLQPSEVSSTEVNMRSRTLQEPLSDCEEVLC

[4] = target: T4, FcRL1, overexpressed on 3T3 cells (UniProt Q96LA6 17-429, limits assumed); assay: phage clone on 3T3-FcRL1 cells
T4 construct: whole, on cells
T4 sequence (looked up): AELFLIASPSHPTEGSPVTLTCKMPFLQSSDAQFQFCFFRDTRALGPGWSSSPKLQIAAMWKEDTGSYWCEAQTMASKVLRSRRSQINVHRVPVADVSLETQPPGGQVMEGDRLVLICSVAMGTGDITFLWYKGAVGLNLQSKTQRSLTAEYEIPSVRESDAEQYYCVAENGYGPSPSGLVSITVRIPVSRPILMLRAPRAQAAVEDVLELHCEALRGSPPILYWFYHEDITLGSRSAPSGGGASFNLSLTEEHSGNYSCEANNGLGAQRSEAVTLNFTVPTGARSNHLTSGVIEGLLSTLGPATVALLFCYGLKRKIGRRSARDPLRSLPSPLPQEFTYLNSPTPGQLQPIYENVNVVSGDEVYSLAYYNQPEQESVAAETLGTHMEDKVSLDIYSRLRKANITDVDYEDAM

Sequence of SLAMF9 protein (Q96A28 19-236 limits assumed): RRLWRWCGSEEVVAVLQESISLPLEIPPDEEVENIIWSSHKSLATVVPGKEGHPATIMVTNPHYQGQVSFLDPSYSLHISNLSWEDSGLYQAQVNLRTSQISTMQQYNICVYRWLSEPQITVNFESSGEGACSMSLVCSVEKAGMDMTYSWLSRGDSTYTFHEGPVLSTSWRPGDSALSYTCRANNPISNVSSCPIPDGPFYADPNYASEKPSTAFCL

Binder	binding result (SLAMF9 protein)	binding result [1]	binding result [2]	binding result [3]	binding result [4]
B1	no binding	no binding	binds	no binding	no binding
B2	no binding	no binding	binds	no binding	no binding
B3	no binding	no binding	binds	no binding	no binding
B4	no binding	no binding	binds	no binding	no binding
B5	no binding	no binding	binds	no binding	no binding
B6	no binding	no binding	binds	no binding	no binding
